Patent US8840891 (RSR, dated 2014)
Read-outs that look alike come from different tables or passages of the source.

Assays:
Assay in all cases: cell-based or functional assay
[1] = target: TSHR with Lys183 mutated to Alanine (human) (UniProt P16473)
[2] = target: wild type human TSHR (human) (UniProt P16473)
[3] = target: human TSHR (wild type) expressed in CHO cells (human) (UniProt P16473)
[4] = target: human TSHR Asp203Ala, expressed in CHO cells (human) (UniProt P16473)
[5] = target: wild type human TSHR (human) (UniProt P16473); remark: listed apart in the source
[6] = target: TSHR with Asp151 mutated to Alanine (human) (UniProt P16473)
[7] = target: wild type human TSHR (human) (UniProt P16473); remark: listed apart in the source
[8] = target: wild type human TSHR (human) (UniProt P16473); remark: listed apart in the source
[9] = target: TSHR with Trp258 mutated to Alanine (human) (UniProt P16473)

Sequence of 5C9 IgG (antibody) (VH): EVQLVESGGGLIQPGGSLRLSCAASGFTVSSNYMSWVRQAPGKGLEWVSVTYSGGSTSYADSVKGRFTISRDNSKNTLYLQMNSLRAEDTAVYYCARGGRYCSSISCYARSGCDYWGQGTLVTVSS
Sequence of 5C9 IgG (antibody) (VL): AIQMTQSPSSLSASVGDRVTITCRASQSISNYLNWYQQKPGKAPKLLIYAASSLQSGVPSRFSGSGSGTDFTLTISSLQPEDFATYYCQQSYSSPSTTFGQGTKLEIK

## 5C9 IgG (antibody)
[1]
  Mutated/wild type (%); 5C9 0.01 µg/mL + TSH: 130%
  Mutated/wild type (%); 5C9 0.1 µg/mL + TSH: 211%
  Mutated/wild type (%); 5C9 1.0 µg/mL + TSH: 418%
  Mutated/wild type (%); 5C9 10 µg/mL + TSH: 618%
  Mutated/wild type (%); 5C9 100 µg/mL + TSH: 786%
  Mutated/wild type (%); 5C9 100 µg/mL only: 195%
  cyclic AMP; 5C9 0.01 µg/mL + TSH (fmol/cell well): 23300
  cyclic AMP; 5C9 0.1 µg/mL + TSH (fmol/cell well): 24300
  cyclic AMP; 5C9 1.0 µg/mL + TSH (fmol/cell well): 14600
  cyclic AMP; 5C9 10 µg/mL + TSH (fmol/cell well): 7570
  cyclic AMP; 5C9 100 µg/mL + TSH (fmol/cell well): 11400
  cyclic AMP; 5C9 100 µg/mL only (fmol/cell well): 747
[2]
  cyclic AMP; 5C9 0.01 µg/mL + TSH (fmol/cell well): 18000
  cyclic AMP; 5C9 0.1 µg/mL + TSH (fmol/cell well): 11500
  cyclic AMP; 5C9 1.0 µg/mL + TSH (fmol/cell well): 3490
  cyclic AMP; 5C9 10 µg/mL + TSH (fmol/cell well): 1230
  cyclic AMP; 5C9 100 µg/mL + TSH (fmol/cell well): 1460
  cyclic AMP; 5C9 100 µg/mL only (fmol/cell well): 384
[3]
  % inhibition of TSH stimulated cyclic AMP level; pTSH 3 ng/mL + 1 µg/mL 5C9: 92%
  Cyclic AMP produced; 5C9 0.01 µg/mL + pTSH 3 ng/mL; Experiment 1 (fmol/cell well): 17200
  Cyclic AMP produced; 5C9 0.01 µg/mL + pTSH 3 ng/mL; Experiment 2 (fmol/cell well): 14100
  Cyclic AMP produced; 5C9 0.1 µg/mL + pTSH 3 ng/mL; Experiment 1 (fmol/cell well): 5590
  Cyclic AMP produced; 5C9 0.1 µg/mL + pTSH 3 ng/mL; Experiment 2 (fmol/cell well): 4460
  Cyclic AMP produced; 5C9 1.0 µg/mL + pTSH 3 ng/mL; Experiment 1 (mean of duplicate determinations) (fmol/cell well): 759
  Cyclic AMP produced; 5C9 1.0 µg/mL + pTSH 3 ng/mL; Experiment 2 (fmol/cell well): 657
  Cyclic AMP produced; 5C9 10 µg/mL + pTSH 3 ng/mL; Experiment 1 (fmol/cell well): 366
  Cyclic AMP produced; 5C9 10 µg/mL + pTSH 3 ng/mL; Experiment 2 (fmol/cell well): 541
  Cyclic AMP produced; 5C9 100 µg/mL + pTSH 3 ng/mL; Experiment 1 (fmol/cell well): 344
  Cyclic AMP produced; 5C9 100 µg/mL + pTSH 3 ng/mL; Experiment 2 (fmol/cell well): 286
  Cyclic AMP produced; 5C9 100 µg/mL only (no TSH); Experiment 1 (fmol/cell well): 300
  Cyclic AMP produced; 5C9 100 µg/mL only (no TSH); Experiment 2 (fmol/cell well): 208
  cyclic AMP concentration; pTSH 3 ng/mL + 1 µg/mL 5C9 (fmol/cell well): 1110
[4]
  % inhibition of TSH stimulated cyclic AMP level; pTSH 3 ng/mL + 1 µg/mL 5C9: 4%
  cyclic AMP concentration; pTSH 3 ng/mL + 1 µg/mL 5C9 (mean of duplicate samples) (fmol/cell well): 9400
[5]
  cyclic AMP; 5C9 0.01 µg/mL + TSH (fmol/cell well): 7180
  cyclic AMP; 5C9 0.1 µg/mL + TSH (fmol/cell well): 7780
  cyclic AMP; 5C9 1.0 µg/mL + TSH (fmol/cell well): 2540
  cyclic AMP; 5C9 10 µg/mL + TSH (fmol/cell well): 532
  cyclic AMP; 5C9 100 µg/mL + TSH (fmol/cell well): 747
  cyclic AMP; 5C9 100 µg/mL only (fmol/cell well): 119
[6]
  Mutated/wild type (%); 5C9 0.01 µg/mL + TSH: 112%
  Mutated/wild type (%); 5C9 0.1 µg/mL + TSH: 143%
  Mutated/wild type (%); 5C9 1.0 µg/mL + TSH: 465%
  Mutated/wild type (%); 5C9 10 µg/mL + TSH: 599%
  Mutated/wild type (%); 5C9 100 µg/mL + TSH: 162%
  Mutated/wild type (%); 5C9 100 µg/mL only: 224%
  cyclic AMP; 5C9 0.01 µg/mL + TSH (fmol/cell well): 12600
  cyclic AMP; 5C9 0.1 µg/mL + TSH (fmol/cell well): 9960
  cyclic AMP; 5C9 1.0 µg/mL + TSH (fmol/cell well): 6450
  cyclic AMP; 5C9 10 µg/mL + TSH (fmol/cell well): 2280
  cyclic AMP; 5C9 100 µg/mL + TSH (fmol/cell well): 1540
  cyclic AMP; 5C9 100 µg/mL only (fmol/cell well): 395
[7]
  cyclic AMP; 5C9 0.01 µg/mL + TSH (fmol/cell well): 11200
  cyclic AMP; 5C9 0.1 µg/mL + TSH (fmol/cell well): 6950
  cyclic AMP; 5C9 1.0 µg/mL + TSH (fmol/cell well): 1390
  cyclic AMP; 5C9 10 µg/mL + TSH (fmol/cell well): 380
  cyclic AMP; 5C9 100 µg/mL + TSH (fmol/cell well): 945
  cyclic AMP; 5C9 100 µg/mL only (fmol/cell well): 176
[8]
  cyclic AMP; 5C9 0.01 µg/mL + TSH (fmol/cell well): 19500
  cyclic AMP; 5C9 0.1 µg/mL + TSH (fmol/cell well): 10500
  cyclic AMP; 5C9 1.0 µg/mL + TSH (fmol/cell well): 2620
  cyclic AMP; 5C9 10 µg/mL + TSH (fmol/cell well): 1190
  cyclic AMP; 5C9 100 µg/mL + TSH (fmol/cell well): 1320
  cyclic AMP; 5C9 100 µg/mL only (fmol/cell well): 211
[9]
  Mutated/wild type (%); 5C9 0.01 µg/mL + TSH: 34%
  Mutated/wild type (%); 5C9 0.1 µg/mL + TSH: 19%
  Mutated/wild type (%); 5C9 1.0 µg/mL + TSH: 43%
  Mutated/wild type (%); 5C9 10 µg/mL + TSH: 30%
  Mutated/wild type (%); 5C9 100 µg/mL + TSH: 37%
  Mutated/wild type (%); 5C9 100 µg/mL only: 200%
  cyclic AMP; 5C9 0.01 µg/mL + TSH (fmol/cell well): 6620
  cyclic AMP; 5C9 0.1 µg/mL + TSH (fmol/cell well): 1940
  cyclic AMP; 5C9 1.0 µg/mL + TSH (fmol/cell well): 1130
  cyclic AMP; 5C9 10 µg/mL + TSH (fmol/cell well): 357
  cyclic AMP; 5C9 100 µg/mL + TSH (fmol/cell well): 484
  cyclic AMP; 5C9 100 µg/mL only (fmol/cell well): 423
